Target: T1, human TRADD death domain (199-312) (human, UniProt Q15628 199-312)
T1 sequence: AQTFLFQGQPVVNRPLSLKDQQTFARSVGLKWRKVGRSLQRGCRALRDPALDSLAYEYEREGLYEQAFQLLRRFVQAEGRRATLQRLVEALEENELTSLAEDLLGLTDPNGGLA
Experiment: NMR solution structure

B1: human p75 neurotrophin receptor death domain (330-427) (domain or fragment)
chain: KGDGGLYSSLPPAKREEVEKLLNGSAGDTWRHLAGELGYQPEHIDSFTHEACPVRALLASWATQDSATLDALLAALRRIQRADLVESLCSESTATSPV
B1: binds.
